# The supplement of paper PMC10567573
# B1: TFE3 (parent)
# chain: ELPNIKREISETEAKALLKERQKK
# Variants of: B1
# Assay: protein stability index of a GFP-peptide fusion (GPS, HEK-293T) (PSI 1-6); higher = more stable
# Conditions: c terminus: a fixed tail appended
# 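Further: lentivirally expressed fusions sorted by FACS into six bins by GFP to DsRed ratio, PSI derived from sequencing read proportions per bin multiplied by bin number.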
row,Variant,protein stability index
1,L17A,2.74
2,T12E,5.55
3,Q22C,2.71
4,K15E,1.86
5,S10M,2.12
6,N4R,2.34
7,L2W,3.96
8,K15L,2.08
9,I9Y,4.34
10,L2I,2.19
11,I9H,5.21
12,E13S,4.13
13,S10F,2.65
14,E11G,3.45
15,E11Y,3.16
16,K19V,2.8
17,K19Y,3.06
18,I5H,4.61
19,R21T,2.82
20,E11P,4.21
21,A14L,2.54
22,Q22Y,1.8
23,T12A,2.86
24,A14M,2.05

row,Variant,protein stability index
1,L18R,2.32
2,E13F,3.26
3,P3A,2.6
4,I5E,5.37
5,K15P,4.59
6,S10L,2.57
7,E8H,3.31
8,K15F,2.54
9,R21A,3.07
10,A14N,2.64
11,E8W,2.21
12,K15C,3.29
13,E13G,4.58
14,K19L,2.84
15,I5C,3.53
16,K15G,2.34
17,A14H,3.14
18,E20R,3.29
19,K15A,2.5
20,Q22M,2.75
21,L17H,2.12
22,T12Q,4.67
23,K19H,2.36
24,E11W,2.91

row,Variant,protein stability index
1,L2H,4.51
2,T12H,4.58
3,E11Q,3.29
4,T12C,2.51
5,I5Q,4.38
6,I9P,5.1
7,P3Q,2.98
8,L17C,3.09
9,R7E,2.46
10,E20V,2.52
11,E8Y,3.68
12,P3M,1.93
13,L17N,2.56
14,N4G,3.62
15,I9D,5.15
16,E11V,2.43
17,K6F,2.79
18,L2S,5.39
19,A14V,2.45
20,E11D,2.45
21,I9Q,4.83
22,R7I,3.2
23,Q22D,2.11
24,K6T,3.05

row,Variant,protein stability index
1,K23A,2.19
2,P3L,2.02
3,R7Q,2.4
4,T12P,4.73
5,E13C,2.74
6,K24C,2.71
7,K6C,2.33
8,E11S,3.61
9,N4W,3.35
10,L17R,3.27
11,L2G,5.23
12,L2D,5.49
13,E20C,2.07
14,I9G,4.67
15,R21I,2.66
16,N4H,2.84
17,L2R,3.94
18,P3H,2.57
19,S10E,2.15
20,E13P,3.92
21,K6P,3.89
22,A14S,2.22
23,L17D,2.13
24,N4D,2.75

row,Variant,protein stability index
1,A14T,2
2,E20D,2.79
3,E20W,2.82
4,N4A,2.88
5,R21Y,2.72
6,E20M,2.59
7,E8T,3.46
8,K24E,3.37
9,K24H,2.2
10,E11H,3.1
11,L18I,3.06
12,E11T,3.25
13,E1S,2.87
14,K6H,2.49
15,R21S,1.81
16,E1C,3.12
17,A16G,3.47
18,P3R,3.75
19,K19E,2.62
20,I9A,4.71
21,A14F,2.83
22,L18G,1.87
23,P3S,3.44
24,K24I,2.69

row,Variant,protein stability index
1,E11M,2.78
2,L18A,2.67
3,E8R,4.32
4,L17S,2.32
5,A16D,4.48
6,L2M,2.84
7,I9T,4.49
8,A14R,2.51
9,L2V,1.95
10,R7V,2.46
11,I5F,4.05
12,I5P,4.91
13,P3K,3.82
14,K6I,2.04
15,S10D,2.53
16,S10P,4.98
17,I9R,3.88
18,K24R,2.15
19,T12S,2.69
20,I5S,4.98
21,E1Y,2.82
22,R21L,2.97
23,A16E,4.09
24,K19P,2.29

row,Variant,protein stability index
1,L18P,2.77
2,T12I,4.13
3,I9E,5.1
4,E1I,3.59
5,Q22G,2.77
6,Q22P,2.34
7,A16F,2.08
8,K24M,2.19
9,R21K,2.5
10,P3T,3.57
11,T12D,4.56
12,Q22R,2.9
13,I9F,4.51
14,Q22W,2.4
15,E20L,2.44
16,L2N,5.12
17,E13W,2.56
18,E1G,4.65
19,S10A,2.23
20,Q22A,2.73
21,K15N,2.22
22,L2C,3.5
23,I5T,4.7
